Assay results taken from patent US20070020706A1 (UNIVERSITY HOSPITALS OF CLEVELAND, published 2007).

B1: truncated P2X7-j receptor protein (receptor)
chain: MPACCSCSDVFQYETNKVTRIQSMNYGTIKWFFHVIIFSYVCFALVSDKLYQRKEPVISSVHTKVKGIAEVKEEIVENGVKKLVHSVFDTADYTFPLQGNSFFVMTNFLKTEGQEQRLCPEYPTRRTLCSSDRGCKKGWMDPQSKGIQTGRCVVHEGNQKTCEVSAWCPIEAVEEAPRPALLNSAENFTVLIKNNIDFPGHNYTTRNILPGLNITCTFHKTQNPQCPIFRLGDIFRETGDNFSDVAIQIRQVLQGKQC
notes: Untagged P2X7-j, expressed in HEK-293 cells or endogenous in human cancer cell lines; Runs as 42-45 kDa bands; also called P2X7-RTR
B2: full-length human P2X7 receptor (receptor)
chain: MPACCSCSDVFQYETNKVTRIQSMNYGTIKWFFHVIIFSYVCFALVSDKLYQRKEPVISSVHTKVKGIAEVKEEIVENGVKKLVHSVFDTADYTFPLQGNSFFVMTNFLKTEGQEQRLCPEYPTRRTLCSSDRGCKKGWMDPQSKGIQTGRCVVHEGNQKTCEVSAWCPIEAVEEAPRPALLNSAENFTVLIKNNIDFPGHNYTTRNILPGLNITCTFHKTQNPQCPIFRLGDIFRETGDNFSDVAIQGGIMGIEIYWDCNLDRWFHHCHPKYSFRRLDDKTTNVSLYPGYNFRYAKYYKENNVEKRTLIKVFGIRFDILVFGTGGKFDIIQLVVYIGSTLSYFGLAAVFIDFLIDTYSSNCCRSHIYPWCKCCQPCVVNEYYYRKKCESIVEPKPTLKYVSFVDESHIRMVNQQLLGRSLQDVKGQEVPRPAMDFTDLSRLPLALHDTPPIPGQPEEIQLLRKEATPRSRDSPVWCQCGSCLPSQLPESHRCLEELCCRKKPGACITTSELFRKLVLSRHVLQFLLLYQEPLLALDVDSTNSRLRHCAYRCYATWRFGSQDMADFAILPSCCRWRIRKEFPKSEGQYSGFKSPY
notes: Expressed from cDNA in HEK-293 cells or endogenous in human cells and tissues (CaSki, HeLa, cervical tissue); Mostly assayed in cell extracts on immunoblots, where it runs as 65, 75 and 85 kDa forms; also called P2X7-RFL; P2X7-WT

How the values were obtained:
Assay in all cases: densitometry of oligomer bands on an immunoblot, HEK293 cells co-expressing P2X7 and P2X7-j
[1] = molecular target: B2
[2] = molecular target: the molecule itself
[3] = molecular target: B1

Binder	relative band density (ratio) [1]	relative band density (ratio) [2]	relative band density (ratio) [3]
B1	15 ratio parts	70 ratio parts	
B2		10 ratio parts	5 ratio parts
